Measured values as given in the supplement of paper PMC9112550, “Optimization of the antimicrobial peptide Bac7 by deep mutational scanning” (BMC Biology, 2022).

Tested on: Escherichia coli TOP10
Experiment: shrunken log2 fold change of peptide-encoding DNA abundance (4.5 h post-induction vs induction); higher = less antimicrobial activity (less host growth inhibition)
Settings: time post-induction: 4.5 h; library: site-saturation at positions 5, 18, 19, 20
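Further: peptides expressed intracellularly from a pBAD plasmid library in pooled LB shake-flask culture, induced with 0.3% L-arabinose, DNA abundance read by NGS, three biological replicates, DESeq2 with apeglm shrinkage.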

Sequence	shrunken log2 fold change
RRIRYRPPRLPRPRPRPRVWPRP	1.85
RRIRQRPPRLPRPRPRPQHGPRP	-0.000236
RRIRGRPPRLPRPRPRPKYHPRP	0.00515
RRIRRRPPRLPRPRPRPTLSPRP	-0.0436
RRIRNRPPRLPRPRPRPLHFPRP	-0.563
RRIRPRPPRLPRPRPRPFTCPRP	-0.206
RRIRGRPPRLPRPRPRPMSQPRP	0.213
RRIRQRPPRLPRPRPRPIRAPRP	0.0231
RRIRNRPPRLPRPRPRPAVSPRP	-0.203
RRIRMRPPRLPRPRPRPCRGPRP	0.0309
RRIRARPPRLPRPRPRPDDAPRP	0.138
RRIRMRPPRLPRPRPRPRADPRP	1.73
RRIRARPPRLPRPRPRPRMCPRP	0.339
RRIRMRPPRLPRPRPRPGSAPRP	1.4
RRIRDRPPRLPRPRPRPRGDPRP	0.231
RRIRYRPPRLPRPRPRPLTYPRP	-0.144
RRIRCRPPRLPRPRPRPSLEPRP	-0.136
RRIRKRPPRLPRPRPRPIKNPRP	-0.188
RRIRCRPPRLPRPRPRPQYVPRP	-0.345
RRIRARPPRLPRPRPRPVIRPRP	-0.055
RRIRCRPPRLPRPRPRPAEMPRP	-0.0594
RRIRKRPPRLPRPRPRPEPKPRP	0.191
RRIRFRPPRLPRPRPRPRRGPRP	0.435
RRIRSRPPRLPRPRPRPWIRPRP	-0.207
RRIRLRPPRLPRPRPRPPCRPRP	0.0548

Sequence	shrunken log2 fold change
RRIRDRPPRLPRPRPRPNAQPRP	0.325
RRIRKRPPRLPRPRPRPHDYPRP	0.0206
RRIRLRPPRLPRPRPRPSDIPRP	-0.0623
RRIRFRPPRLPRPRPRPVQRPRP	-0.072
RRIRTRPPRLPRPRPRPTQMPRP	0.451
RRIRTRPPRLPRPRPRPTWTPRP	-0.136
RRIRNRPPRLPRPRPRPEMMPRP	0.317
RRIRMRPPRLPRPRPRPNKCPRP	0.216
RRIRMRPPRLPRPRPRPPHMPRP	0.296
RRIRDRPPRLPRPRPRPTKCPRP	-0.0929
RRIRERPPRLPRPRPRPVQEPRP	0.0869
RRIRPRPPRLPRPRPRPGEVPRP	0.605
RRIRRRPPRLPRPRPRPKAIPRP	0.111
RRIRERPPRLPRPRPRPVKCPRP	-0.069
RRIRERPPRLPRPRPRPLEHPRP	-0.277
RRIRCRPPRLPRPRPRPDTWPRP	-0.234
RRIRGRPPRLPRPRPRPNTLPRP	-0.145
RRIRWRPPRLPRPRPRPKSTPRP	0.126
RRIRDRPPRLPRPRPRPNEQPRP	-0.0164
RRIRFRPPRLPRPRPRPMHTPRP	0.5
RRIRERPPRLPRPRPRPRGTPRP	0.0483
RRIRFRPPRLPRPRPRPIEIPRP	-0.143
RRIRLRPPRLPRPRPRPPQVPRP	0.162
RRIRRRPPRLPRPRPRPATHPRP	0.434
RRIRVRPPRLPRPRPRPKIVPRP	0.2

Sequence	shrunken log2 fold change
RRIRARPPRLPRPRPRPIWLPRP	0.221
RRIRDRPPRLPRPRPRPFSYPRP	-0.22
RRIRHRPPRLPRPRPRPSMVPRP	-0.372
RRIRVRPPRLPRPRPRPHKKPRP	-0.169
RRIRFRPPRLPRPRPRPLYVPRP	-0.631
RRIRFRPPRLPRPRPRPMWGPRP	-0.136
RRIRDRPPRLPRPRPRPRRMPRP	-0.152
RRIRQRPPRLPRPRPRPFFVPRP	-0.0254
RRIRTRPPRLPRPRPRPCFLPRP	-0.535
RRIRCRPPRLPRPRPRPQSGPRP	-0.142
RRIRLRPPRLPRPRPRPKGLPRP	-0.0393
RRIRKRPPRLPRPRPRPNPVPRP	0.0163
RRIRKRPPRLPRPRPRPVGKPRP	-0.163
RRIRPRPPRLPRPRPRPCQKPRP	-0.00783
RRIRQRPPRLPRPRPRPWYRPRP	-0.49
RRIRTRPPRLPRPRPRPYQEPRP	-0.182
RRIRHRPPRLPRPRPRPESFPRP	-0.0018
RRIRQRPPRLPRPRPRPQMAPRP	-0.065
RRIRKRPPRLPRPRPRPVDNPRP	-0.0705
RRIRLRPPRLPRPRPRPGPGPRP	0.279
RRIRVRPPRLPRPRPRPSGRPRP	0.0291
RRIRTRPPRLPRPRPRPSRHPRP	-0.481
RRIRQRPPRLPRPRPRPVNIPRP	0.0209
RRIRTRPPRLPRPRPRPFCLPRP	-0.278
RRIRLRPPRLPRPRPRPARGPRP	0.565

Sequence	shrunken log2 fold change
RRIRHRPPRLPRPRPRPWRLPRP	-0.0125
RRIRKRPPRLPRPRPRPECGPRP	1.01
RRIRPRPPRLPRPRPRPANRPRP	-0.125
RRIRRRPPRLPRPRPRPHIPPRP	-0.126
RRIRMRPPRLPRPRPRPKCYPRP	-0.0362
RRIRSRPPRLPRPRPRPMPQPRP	0.126
RRIRWRPPRLPRPRPRPSMNPRP	0.0339
RRIRTRPPRLPRPRPRPDNKPRP	-0.272
RRIRQRPPRLPRPRPRPGPAPRP	0.114
RRIRARPPRLPRPRPRPWMRPRP	0.263
RRIRNRPPRLPRPRPRPDCFPRP	-0.306
RRIRDRPPRLPRPRPRPQVTPRP	0.0425
RRIRFRPPRLPRPRPRPDWNPRP	-0.287
RRIRLRPPRLPRPRPRPRYEPRP	-0.286
RRIRWRPPRLPRPRPRPCVVPRP	0.0549
RRIRIRPPRLPRPRPRPIVCPRP	0.000993
RRIRRRPPRLPRPRPRPSRWPRP	0.08
RRIRERPPRLPRPRPRPWHAPRP	0.421
RRIRIRPPRLPRPRPRPTHKPRP	0.201
RRIRLRPPRLPRPRPRPMAHPRP	-0.944
RRIRFRPPRLPRPRPRPVPMPRP	0.108
RRIRKRPPRLPRPRPRPCMDPRP	-0.122
RRIRHRPPRLPRPRPRPVAKPRP	-0.17
RRIRIRPPRLPRPRPRPHFTPRP	-0.0792
RRIRYRPPRLPRPRPRPKYTPRP	-0.415

Sequence	shrunken log2 fold change
RRIRGRPPRLPRPRPRPGMEPRP	1.54
RRIRPRPPRLPRPRPRPQDQPRP	-0.126
RRIRWRPPRLPRPRPRPLILPRP	-0.604
RRIRERPPRLPRPRPRPYYQPRP	0.0241
RRIRTRPPRLPRPRPRPGHPPRP	0.09
RRIRYRPPRLPRPRPRPSAMPRP	-0.0964
RRIRKRPPRLPRPRPRPHTCPRP	0.00412
RRIRNRPPRLPRPRPRPLPCPRP	-0.207
RRIRDRPPRLPRPRPRPWFFPRP	0.673
RRIRNRPPRLPRPRPRPPIYPRP	-0.202
RRIRNRPPRLPRPRPRPATVPRP	-0.17
RRIRHRPPRLPRPRPRPNPNPRP	-0.202
RRIRCRPPRLPRPRPRPCEGPRP	0.0324
RRIRSRPPRLPRPRPRPDNFPRP	-0.299
RRIRCRPPRLPRPRPRPRIWPRP	0.0951
RRIRKRPPRLPRPRPRPDLQPRP	0.0789
RRIRIRPPRLPRPRPRPNWKPRP	-0.00224
RRIRTRPPRLPRPRPRPVNPPRP	-0.0713
RRIRCRPPRLPRPRPRPLVYPRP	-0.548
RRIRERPPRLPRPRPRPHIYPRP	-0.226
RRIRFRPPRLPRPRPRPGIEPRP	-0.0616
RRIRIRPPRLPRPRPRPINIPRP	-1.41
RRIRTRPPRLPRPRPRPVNGPRP	0.0311
RRIRVRPPRLPRPRPRPYPNPRP	0.0262
RRIRGRPPRLPRPRPRPEENPRP	1.21

Sequence	shrunken log2 fold change
RRIRARPPRLPRPRPRPMGFPRP	-0.154
RRIRTRPPRLPRPRPRPPITPRP	-0.235
RRIRCRPPRLPRPRPRPKPEPRP	0.377
RRIRCRPPRLPRPRPRPNWMPRP	-0.805
RRIRVRPPRLPRPRPRPFDNPRP	-0.359
RRIRNRPPRLPRPRPRPNNKPRP	-0.63
RRIRWRPPRLPRPRPRPPMYPRP	-0.216
RRIRSRPPRLPRPRPRPECIPRP	0.00247
RRIRCRPPRLPRPRPRPEIAPRP	0.193
RRIRERPPRLPRPRPRPKFKPRP	-0.355
RRIRNRPPRLPRPRPRPLYTPRP	-0.269
RRIRFRPPRLPRPRPRPCGRPRP	0.156
RRIRHRPPRLPRPRPRPPVRPRP	0.16
RRIRGRPPRLPRPRPRPKQCPRP	0.103
RRIRIRPPRLPRPRPRPDRCPRP	-0.163
RRIRCRPPRLPRPRPRPNVQPRP	-0.0319
RRIRLRPPRLPRPRPRPGFWPRP	0.406
RRIRPRPPRLPRPRPRPCMSPRP	-0.0701
RRIRYRPPRLPRPRPRPHMRPRP	-0.02
RRIRERPPRLPRPRPRPTSYPRP	-0.288
RRIRTRPPRLPRPRPRPDHIPRP	-0.242
RRIRKRPPRLPRPRPRPPNDPRP	0.426
RRIRMRPPRLPRPRPRPQHSPRP	-0.183
RRIRIRPPRLPRPRPRPDDIPRP	-0.151
RRIRPRPPRLPRPRPRPFQPPRP	-0.0843
